Columns and labels:
Assay in all cases: EMSA
[1] = tested on: δ2 (ParA-like) (Streptococcus pyogenes plasmid pSM19035); details: 1 mM ATP, 10 mM Mg2+; KDapp, cooperative; EMSA: 50 mM Tris-HCl pH 7.5, 50 mM NaCl, 10 mM MgCl2 (buffer B; Fig 7 legend says buffer C), with or without 1 mM ATP or ADP, 15 min at 37°C, 0.1 nM DNA; 4 or …
[2] = tested on: δ2D211A (Streptococcus pyogenes plasmid pSM19035); details: EMSA: 50 mM Tris-HCl pH 7.5, 50 mM NaCl, 10 mM MgCl2 (buffer B; Fig 7 legend says buffer C), with or without 1 mM ATP or ADP, 15 min at 37°C, 0.1 nM DNA; 4 or …
[3] = tested on: δ2D60A (Streptococcus pyogenes plasmid pSM19035); details: EMSA: 50 mM Tris-HCl pH 7.5, 50 mM NaCl, 10 mM MgCl2 (buffer B; Fig 7 legend says buffer C), with or without 1 mM ATP or ADP, 15 min at 37°C, 0.1 nM DNA; 4 or …
[4] = tested on: δ2K242A (Streptococcus pyogenes plasmid pSM19035); details: EMSA: 50 mM Tris-HCl pH 7.5, 50 mM NaCl, 10 mM MgCl2 (buffer B; Fig 7 legend says buffer C), with or without 1 mM ATP or ADP, 15 min at 37°C, 0.1 nM DNA; 4 or …

423-bp HindIII-KpnI parS2 DNA
Kd [1]: 140 nM | binding signal (fold higher affinity than wt) [2]: > 6 | binding signal (fold higher affinity than wt) [3]: 2 | binding signal (fold lower binding than wt) [4]: 20

Reference: publication PMC4498918
